Experimental findings from paper PMC9705753 are described below.

This assay has as its target Gal4 DNA-Binding Domain (DBD) linked to the LOV domain of WC-1 (N. crassa) (UniProt Q01371). Description: two-hybrid; Y2H-like optogenetic switch (FUN-LOV variants) in S. cerevisiae BY4741 or 59A-EC1118; genome-integrated luciferase reporter under P_GAL1 or P_5XGAL1; constant blue light or a single 2-h blue-light pulse (466 nm, 24 umol m^-2 s^-1) compared with constant darkness; 25°C, SC medium with 1 mM luciferin. In general terms: A reporter such as luciferase makes a cellular process visible.
Chain of UniProt Q01371 (Q01371 381-508): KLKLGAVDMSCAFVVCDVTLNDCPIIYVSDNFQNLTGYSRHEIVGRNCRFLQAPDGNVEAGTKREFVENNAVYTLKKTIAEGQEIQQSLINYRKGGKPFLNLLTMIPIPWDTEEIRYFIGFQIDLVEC

On to “Gal4-activation domain (AD) tethered to the LOV domain of VVD (from UniProt Q9C3Y6 1-186) (domain or fragment)”, for which the fold induction of luciferase expression (blue-light pulse / darkness), 59A-EC1118 strain, P 5XGAL1-Luc is 982 fold.
